Data from the nanobody polyreactivity screen of Harvey et al. (2022).

Assay: yeast display, Sf9 membrane polyspecificity reagent, FACS + sequencing; frameworks hold sequencing errors
Outline: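 In a synthetic yeast display library (Saccharomyces cerevisiae BJ5465), nanobody expression was induced with galactose for 36–48 hours. FACS gates were set low and high (top ~1%) using anti-HA fluorescence for expression and streptavidin fluorescence for binding of the Sf9 membrane reagent. Each polyreactivity label is drawn from the gate of origin.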

Row | Sequence | polyreactivity (PSR sort gate)
1 | QVQLLESVGGLVQAGGRLRLTCDATGSIFRYYAMGWYRQEPGKERELVATISSGGRTYYADSVKGRFTISRDNAKNTVYLQMNSLKPEDTAVYYCAKVGWSRRYYYWGQGTQVTVSS | high polyreactivity
2 | QVQLVESGGGLVQAGGSLRLSCAASGSIFSSYAMGWYRQAPGKERELVATITSSGGSTYYADSVKGRFTISRDNAKNTVYLQMNSLKPEVTAVYYCAASYHTSYSLRSYYYWGQGTQVTVSS | low polyreactivity
3 | QVQLVESGGGLVQAGGSLRLSCAASGRTFVNNAMGWYRQAPGKERELVAAITRSGGRTYYADSVKGRFTISRDNAKNTVYLQMNSLKPVDTAVYYCATANVRLRHDDYWGQGTQVTVSS | high polyreactivity
4 | QVQLVESGGGLDQAGGSLRLSCADSGFTSDGYAKGSYTQAPGKEREFVADINSDGSTNYADSVKARFTISRDNAKNTVYLQLNSLIPEDSAVYYCAKDQAAYYLIPWYPLHDYWGQGTQVTLSS | low polyreactivity
5 | QVQLVESGGGFVQAGGSLRLSCAASGHIFFYYTKGWYRQAPGKERELVAGITIGGSTNYADSVKGRFTISRDNAKNSVYLQMNSLKPEDTAVYYCYVVLYVSIYSYGEYYYWGQGTQVTVSS | low polyreactivity
6 | QVQLVESGGGLVQAGGSLRLSCAASGGTFPQNVMGWYRPAPGKERELVAAISSGGSTYYADSVKVRFTISRDNAKNTVYFQMNSLIPEDTGVYYCAKRRWYRYDYWGQGTQVTVSS | high polyreactivity
7 | QVQLVESGGGLVQAGVSLRLSCAASARSFAWKAMVWYRQAPGKERELVAAITWSGGSTYYADSVKGRFTISRDNGKNTVYFQLNSLKQEDTAVYYCNKLYPYYATHTTRGLDYWGQGTQVTVSS | high polyreactivity
8 | QVQLVESGGGLVQAGGSLRLSCAASGRIFWRNTMGWYRQAPGKERELVAAITGSSTRTYYADSVKGRFTISRDNAKNTVYLQMNSLKPEDTAVYYCAARSYPYQVAAGYVTRFNYWGQGTQVTVSS | high polyreactivity
9 | QVQLVESGGGLVQAGGSLRLSCAACGSTFSPNAMGWYRQAPGKERELVAAISGSGASTYYADSVKGRFTISRDNAKNTVYLQMNSLKPEDTAVYYCAADKPGIFSRFDYWGQGTQVTVSS | low polyreactivity
10 | QFQRVESGGGLVQAGGSLRLSSAASASIFSVYTMGWSRQAPGKERELDAAISTGGGSKYYADSVKGRFTISRDNAKNTVYLQMKSLKPEDTSVYYCGTDYGWPPSYWYDSFGQGTQVTVSS | low polyreactivity
11 | QVQLVESGGGLVQAGGSLRLSCAASGSIFSQYAMGWYRQAPGKEREFVAAINWSGGRTRYADSVKGRFTISRDNAKNTVYLEMKSLKPEDTAVYYCNARGYSGVSGKYGYWGQGTQVTVSS | high polyreactivity
12 | QDQLVESGGGLVQAGGSHRLSCAASGRIFARNAMGWYRQAPGKERELVATIRVGGGSTYYADSVKGRFTISRDNAKNTVYLQLNSLKPEDTAVYDCAVRQLYSYPGDRRGYYWGQGTQVTVSS | low polyreactivity
13 | QVQLVESGGGLVQAGGSLRLSCAASGSTFYYYVMGWYRQAPGKERELVAAISSGGHTNYADSVKGRFTISRDNAKNTVYLQMNSLKPEDTAVYYCAAKPWRGTLLRYGYWGQGTQVTVSS | high polyreactivity
14 | QDQLVESGGGLVQAGVSLRLICAASGRTFYLYAIGWYRQAPGKERELVAAITWGGATTYYADSVKGRFTISRDNAKNTVYLQMNSLKPEVTAVYYCAAGGYTVWHYQYYAMDYCGQGTQVTVSS | low polyreactivity
15 | QVQLVESGGGLVQAGGSLRLSCAASGYIFSYYAMGWYRQAPGKERELVAAITSSGGRTYYADSVKGRFTISRDNAKNTVYLQMNSLKPEDTAVYYCNRDYSSYDTEDYWGQGTQVTVSS | high polyreactivity
16 | QDQLVESGGGLVQAGGSLRLSCAASGFIFDDNAMGGYRQAPGKERELVAAITSGGGSTYYADSVKGRFTISRDNAKYTVYLQMNSLKPEDTAVYYCNAVPSQHDEFDYWGQGTQVTVSS | low polyreactivity
17 | QVQLLEIGGGLVQAGGSLRQSCMASGSILGDRMSWYRQAPGKEHELVATIFDGGITYYADSMKGRFTISRDNAKNTVYLQMNSLRPEDTAVYYCGASFDGYRYHVYCGQGTQVTVSS | low polyreactivity
18 | QVQLVESGGGLVQAGGSLRLSCAASGFIFATNAMGWYIQAPGKERELVAAITWSGATTYYADSVKGRFTISRDNAKNTVYLQMNSLKPEDTAVYYCAARRYVYGSPYSTYRYGYWGQGTQVTVSS | high polyreactivity
19 | QVQLVESGGGLVQAGGSLRLSCAASGVIFNRYAMGWYRQAPGKERELVAAISSGGNTHYADSVKGRFTISRDNAKNTDYLQMNSLKPEDTAVYYCAKAFRHSTFFAPYDYWGQGTQVTVSS | low polyreactivity
20 | QVQLVESGGGLVQAGGILRLSCAASGRIFYYNAMGGYRQAPGKERELVAAITSGGSTNYADSVKGRFTISRDNAKNTVYLQMNSLKPEDTAVYYCAADYYYYVAGVHYDYWGQGTQVTVSS | low polyreactivity
21 | QVQLVESGGGLVQAGGSLRLSCAASGSTFRLNAMGWYRQAPGKERELVAAISRSTGTTHYADSVKGRFTISRDNAKNTVYLQMNSLKPEDTAVYYCATDRAKWHKNGDLGYWGQGTQVTVSS | low polyreactivity
22 | QVQLVESGGGLVQAGGSLRLSCAASGRIFPYYAMGWYRQAPGKEREFVAAITKRGGSTSYADSVKGRFTISRDNAKNTVYLQMNSLKPEDTAVYYCAARRGSGIVTYYGGDYWGQGTQVTVSS | low polyreactivity

Row | Sequence | polyreactivity (PSR sort gate)
23 | PVQLVESGGGLVQAGGSLRLSCAGSGFTFYTNTMGWYIQAPGKERELVAAISSGGSTYADSVKVRYTISRDNAKNTVDLQMNSLKPEDTAVYYCARDFYYSLSGFDYWGQGTQVTVSS | low polyreactivity
24 | QVQLVESGVGLVQAGGSLRLSCAASGFTIYRYAMGWYRQAPGKERELVAAISRGVNTNYADSVKGRFTISRDNAKNTVYLQMNSLKPEETAVYDCAARYDNPSYRTTYGFWGQGTQVTLSS | high polyreactivity
25 | QVQHVESGGGLVQAGVSLRLSCAASGSIFVNNGMGWYRQAPGKERELVAAIRLSTGSTYYADSVKGRFTISRDNAKNTVYLQMNSLKPEDTAVYYCATRSYIWGNWGQGTQVTVSS | high polyreactivity
26 | QVQLEESGGGLVQAGGSLRLSCSAYGFTFSRYDMGWYRQAPGKERELVAAISWSGGSTYYADSVKGRFTISRDNAKNSVYLQMNSLKPEDTAVYYCAKPGWSVTGESWGQGTQVTVSA | high polyreactivity
27 | QVQLVESGGGLVQAGGSLRLSCAASGSTIPDNTMGWYRQAPGKEREFVAAISRIGGTYYADSVKGRFTISRDNAKNYVYLQMNSLKPEDTAVYDCNAYPQGLSGRYHGFDYWGQGTQVTVST | low polyreactivity
28 | QVQLVESGGGLVQAGGSLRLSCAASGRTFRHYAMGWYRQAPGKEREFVAAISRSGGSTRYADSVKGRFTISRDNAKNTVYLQMNSLKPEDTAVYYCAATSRSYNDYDYWGQGTQVTVSS | high polyreactivity
29 | QVQLVESGGGLVQAGGSLRLSCAASGRTIDSNAMGWYRQAPGKERELVAAISSDGGSTYYADSVKGRFTISRDNAKNTVYLQMNSLKPEDTAVYYCNAYYGRFPYYADDYWGQGTQVTVSS | low polyreactivity
30 | QVQLVESGGGLVQAGGSLRVSCAASGIIFGSYPMGWYRQAPGTERELVATISFSGGTTNYADSVKGRFPISRDNATTPVYLQMNSLTPEDTAVYYCAARPAPATGKLDYWGQGTQETVSS | low polyreactivity
31 | QVQLVESGGGLVQAGGSLRLSCAASGRIFTPYVMGWYIQAPGKERELVADINLSGDSTSYADSVKGRFTISRDNAKNTVYLQMNSLKPEDTAVYYCAADFWLVSFQWDFEYDYWGQGTHVTVSS | low polyreactivity
32 | QDQLVESGGGLVQAGGSLRLSCAASGRTFAYNAMVWYRQAPGKERELVADITSGGSTYYADSVKGRFTISRDNPKNTVNLQMNSLKPEDTAVYDCADVRQGSFTTMDYWGQGTQVTVSS | high polyreactivity
33 | QVQLVESGGVLVQAGGSLRLSCAASGSIFRTNVMGWYSQAPGKEREMVASISSDSSTNYADSVKGRFTISRDNEKNTVYLQMNSLKPEDTAVYYCAKDPVVTEHYYWGQGTQVTVSS | low polyreactivity
34 | QVQLVESGGGLVQAGGSLRLSCAASGFIFDLYAMGWSRQAPGKERELVAVISFDGGSTYYADSVKGRFTISRDNAKNTVYLQMNSLKPEDTAVYYCNTYAGLVSPSDLYDYWGQGTQVTVSS | low polyreactivity
35 | QVQLVESGGGLVQAGGRLRLSCAASGSIFHLYMGWYRQAPGKERELVAVINSSGDSTYYADSVKGRFTISRDNAKNTVYLQMNSLKPEDTAVYYCNARRRGPRYLYGYWGQGSQVTVSS | high polyreactivity
36 | QVQLVESGGGLVQAGGSLRLSCAASGFTFWRNTMGWYRQAPGKERELVAGISGSGGSTYYADSVKGRFTISRDNAKNTVYLQMNSLKPEDTAVYYCAVRGGYTWPTYNYWGQGTQVTVSS | high polyreactivity
37 | QVQLVESGGGLVQAGGSLRLSCAASGRTFSGYAMGWYRQAPGKERELVAAITNRGGTYYADSVKGRFTISRDNAKNTVYVQMNSLKPEDTAVYSCAAYKYYARWVRGYDSWGQGTQVTVSS | high polyreactivity
38 | QVQLVESGGGLVQAGGSLRLSCAASGSIFRRNAMGWYRQAPGKERELVATITSDGSTDYADSVKGRFTISRDNAKNTFYLQMISLKPEDTAVYYCAVAYLWRPYDFREFDYWGQGTQVTLSS | low polyreactivity
39 | HVQLVESGGGLVQAGGSLRLSCAASGSIFNSNGMGWYRQATGKERELVAAITGGGSTNYADSVKGRFTISRDNAKNTVYLQMNSLKPEDTAVYYCAARPLRTDWAYYYWGQGTQVTVSS | low polyreactivity
40 | QVQLVESGGGLVQAGGSLRLSCAASGIIFYDYAMGWYRQAPGKERELVAAITSNGDNTYYADSVKGRFTISRDNAKNTVYLPMNSLKPEDTAVYYCAVDGSFAADFDNYLEEYGYWGQGTQVTVSS | low polyreactivity
41 | QVQLVESGGGLVQAGGSLRLSCAASGSTLYTYAMGWYRQAPGKERELVADISTGGSTYYADSVKGRFTISRDNAKNTVYLQMNSLKPEDTAVYYCAAESWFDPVDYWGQGTQVTVSS | low polyreactivity
42 | QVQLVESGGGLVQAGGSLRLSCAASGRTLFSNAMGWYRQAPGKERELVASITSGDSTYYADSVKGRFTISRDNAKNTVYLQMNSLKPEDTSVYYCAADPSIVDGEYGYWGQGTQVTVSS | low polyreactivity
43 | QVQLVESGGGLVQAGGSLRLSCAASGSTFEAYAMGWYRQAPGKERELVAAINFTGGRTYYADSVKGRFTISRDNAKNTVYLQINSLKPEDTAVYYCAARKWGVPYIDNDYWGQGTQVTVSS | low polyreactivity
